The source of these data is patent US20040214230A1.

Test [1] has as its target monoclonal antibody GR-1Ca. Nature of the test: competitive EIA: GALP varied against HRP-labeled [Cys^43] rat GALP (43-60); GR-1Ca solution of 80 ng/ml on anti-mouse immunoglobulin plate.
The target of test [2] is monoclonal antibody GR-2Ca. Description: competitive EIA: GALP varied against HRP-labeled [Cys^43] rat GALP (43-60); GR-2Ca solution of 80 ng/ml on anti-mouse immunoglobulin plate.

B1: rat GALP (peptide)
peptide: APAHRGRGGWTLNSAGYLLGPVLHLSSKANQGRKTDSALEILDLWKAIDGLPYSRSPRMT
The IC50 is the point on the concentration scale where inhibition reaches its midpoint. For the molecule B1, the IC50 in test [1] was determined as 3 nM; in test [2], 10 nM.

B2: porcine GALP (peptide)
peptide: APVHRGRGGWTLNSAGYLLGPVLHPPSRAEGGGKGKTALGILDLWKAIDGLPYPQSQLAS
As to B2, the IC50 in test [1] came out at 8 nM; in test [2], 500 nM.

B3: human GALP (peptide)
peptide: APAHRGRGGWTLNSAGYLLGPVLHLPQMGDQDGKRETALEILDLWKAIDGLPYSHPPQPS
As to B3, the IC50 worked out at 7 nM in test [1] and 20 nM in test [2].
